We go through 16 molecules from US20110059888A1.

B1: des(1)-Ac-[D-Tyr2,Hyp3,Alb4,Thr5,Cha6,Gly7Ψ(CH2CH2)Leu8,Trp10]MS10 (peptide)
peptide: Ac-[dY][Hyp][Dap(CONH2)]T[Cha]GLRW-NH2
modifications: also: Gly7-Leu8 amide bond replaced by -CH2CH2-
B2: des(1)-Ac-[D-Tyr2,Hyp3,Thr5,Cha6,Ala(cPr)8,Trp10]MS10 (peptide)
peptide: Ac-[dY][Hyp]NT[Cha]G[Ala(cPr)]RW-NH2
SMILES: CC(=O)N[C@H](Cc1ccc(O)cc1)C(=O)N1C[C@H](O)C[C@H]1C(=O)N[C@@H](CC(N)=O)C(=O)N[C@H](C(=O)N[C@@H](CC1CCCCC1)C(=O)NCC(=O)N[C@@H](CC1CC1)C(=O)N[C@@H](CCCNC(=N)N)C(=O)N[C@@H](Cc1c[nH]c2ccccc12)C(N)=O)[C@@H](C)O
B3: des(1)-Ac-[D-Tyr2,Hyp3,Thr5,Phe6Ψ(CH2S)Gly7,Arg(Me)9,Trp10]MS10 (peptide)
peptide: Ac-[dY][Hyp]NTFGL[Arg(Me)]W-NH2
modifications: also: Phe5-Gly6 amide bond replaced by CH2S
B4: des(1)-Ac-[D-Tyr2,Hyp3,Thr5,Abu7,Arg(Me)9,Trp10]MS10 (peptide)
peptide: Ac-[dY][Hyp]NTF[Abu]L[Arg(Me)]W-NH2
B5: des(1)-Ac-[D-Tyr2,Hyp3,Thr5,Cha6,Ala(cBu)8,Arg(Me)9,Trp10]MS10 (peptide)
peptide: Ac-[dY][Hyp]NT[Cha]G[Cba][Arg(Me)]W-NH2
B6: des(1)-Ac-[D-Tyr2,Hyp3,Thr5,Cha6,Gly7Ψ(CH2CH2)Leu8,Trp10]MS10 (peptide)
peptide: Ac-[dY][Hyp]NT[Cha]GLRW-NH2
modifications: also: Gly7Ψ(CH2CH2)Leu8: amide between Gly and Leu replaced by -CH2CH2-
B7: des(1)-Ac-[D-Tyr2,Hyp3,Alb4,Thr5,Cha6,Ala(cPr)8,Arg(Me)9,Trp10]MS10 (peptide)
peptide: Ac-[dY][Hyp][Dap(CONH2)]T[Cha]G[Ala(cPr)][Arg(Me)]W-NH2
SMILES: CNC(=N)NCCC[C@H](NC(=O)[C@H](CC1CC1)NC(=O)CNC(=O)[C@H](CC1CCCCC1)NC(=O)[C@@H](NC(=O)[C@H](CNC(N)=O)NC(=O)[C@@H]1C[C@@H](O)CN1C(=O)[C@@H](Cc1ccc(O)cc1)NC(C)=O)[C@@H](C)O)C(=O)N[C@@H](Cc1c[nH]c2ccccc12)C(N)=O
B8: des(1)-Ac-[D-Tyr2,Hyp3,Alb4,Thr5,Cha6,Gly7Ψ(CH2CH2)Leu8,Arg(Me)9,Trp10]MS10 (peptide)
peptide: Ac-[dY][Hyp][Dap(CONH2)]T[Cha]GL[Arg(Me)]W-NH2
modifications: also: Gly7-Leu8 amide bond replaced by -CH2CH2-
B9: des(1)-Ac-[D-Tyr2,Hyp3,Thr5,Cha6,8,Arg(Me)9,Trp10]MS10 (peptide)
peptide: Ac-[dY][Hyp]NT[Cha]G[Cha][Arg(Me)]W-NH2
B10: des(1)-Ac-[D-Tyr2,Hyp3,Thr5,Ala(cBu)6,Ala(cPr)8,Arg(Me)9,Trp10]MS10 (peptide)
peptide: Ac-[dY][Hyp]NT[Cba]G[Ala(cPr)][Arg(Me)]W-NH2
B11: des(1)-Ac-[D-Tyr2,Glu3,Thr5,Cha6,Ala(cPr)8,Trp10]MS10 (peptide)
peptide: Ac-[dY]ENT[Cha]G[Ala(cPr)]RW-NH2
SMILES: CC(=O)N[C@H](Cc1ccc(O)cc1)C(=O)N[C@@H](CCC(=O)O)C(=O)N[C@@H](CC(N)=O)C(=O)N[C@H](C(=O)N[C@@H](CC1CCCCC1)C(=O)NCC(=O)N[C@@H](CC1CC1)C(=O)N[C@@H](CCCNC(=N)N)C(=O)N[C@@H](Cc1c[nH]c2ccccc12)C(N)=O)[C@@H](C)O
B12: des(1)-Ac-[D-Tyr2,Hyp3,Thr5,Dap7,Arg(Me)9,Trp10]MS10 (peptide)
peptide: Ac-[dY][Hyp]NTF[Dap]L[Arg(Me)]W-NH2
B13: des(1)-Ac-[D-Tyr2,Hyp3,Alb4,Ser5,Cha6,Ala(cPr)8,Arg(Me)9,Trp10]MS10 (peptide)
peptide: Ac-[dY][Hyp][Dap(CONH2)]S[Cha]G[Ala(cPr)][Arg(Me)]W-NH2
SMILES: CNC(=N)NCCC[C@H](NC(=O)[C@H](CC1CC1)NC(=O)CNC(=O)[C@H](CC1CCCCC1)NC(=O)[C@H](CO)NC(=O)[C@H](CNC(N)=O)NC(=O)[C@@H]1C[C@@H](O)CN1C(=O)[C@@H](Cc1ccc(O)cc1)NC(C)=O)C(=O)N[C@@H](Cc1c[nH]c2ccccc12)C(N)=O
B14: des(1)-Ac-[D-Tyr2,Hyp3,Alb4,Gly5,Cha6,Ala(cPr)8,Arg(Me)9,Trp10]MS10 (peptide)
peptide: Ac-[dY][Hyp][Dap(CONH2)]G[Cha]G[Ala(cPr)][Arg(Me)]W-NH2
SMILES: CNC(=N)NCCC[C@H](NC(=O)[C@H](CC1CC1)NC(=O)CNC(=O)[C@H](CC1CCCCC1)NC(=O)CNC(=O)[C@H](CNC(N)=O)NC(=O)[C@@H]1C[C@@H](O)CN1C(=O)[C@@H](Cc1ccc(O)cc1)NC(C)=O)C(=O)N[C@@H](Cc1c[nH]c2ccccc12)C(N)=O
B15: des(1)-Ac-[D-Tyr2,Hyp3,Alb4,Ala5,Cha6,Ala(cPr)8,Arg(Me)9,Trp10]MS10 (peptide)
peptide: Ac-[dY][Hyp][Dap(CONH2)]A[Cha]G[Ala(cPr)][Arg(Me)]W-NH2
SMILES: CNC(=N)NCCC[C@H](NC(=O)[C@H](CC1CC1)NC(=O)CNC(=O)[C@H](CC1CCCCC1)NC(=O)[C@H](C)NC(=O)[C@H](CNC(N)=O)NC(=O)[C@@H]1C[C@@H](O)CN1C(=O)[C@@H](Cc1ccc(O)cc1)NC(C)=O)C(=O)N[C@@H](Cc1c[nH]c2ccccc12)C(N)=O
B16: des(1)-Ac-[D-Tyr2,Hyp3,Alb4,Dap5,Cha6,Ala(cPr)8,Arg(Me)9,Trp10]MS10 (peptide)
peptide: Ac-[dY][Hyp][Dap(CONH2)][Dap][Cha]G[Ala(cPr)][Arg(Me)]W-NH2
SMILES: CNC(=N)NCCC[C@H](NC(=O)[C@H](CC1CC1)NC(=O)CNC(=O)[C@H](CC1CCCCC1)NC(=O)[C@H](CN)NC(=O)[C@H](CNC(N)=O)NC(=O)[C@@H]1C[C@@H](O)CN1C(=O)[C@@H](Cc1ccc(O)cc1)NC(C)=O)C(=O)N[C@@H](Cc1c[nH]c2ccccc12)C(N)=O

[ ]: non-standard residue; d: D form. Arg(Me) = CNC(=N)NCCC[C@H](N)C(=O)O; Dap(CONH2) = NC(=O)NC[C@H](N)C(=O)O; Ala(cPr) = N[C@@H](CC1CC1)C(=O)O; Hyp = O=C(O)[C@@H]1C[C@@H](O)CN1; Cha = N[C@@H](CC1CCCCC1)C(=O)O; Cba = N[C@@H](CC1CCC1)C(=O)O; Abu = CC[C@H](N)C(=O)O; Dap = NC[C@H](N)C(=O)O

The target of the experiment is human OT7T175 (metastin receptor) (human) (UniProt Q969F8). The experiment in a line: cell-based or functional assay.
Sequence of UniProt Q969F8 (Q969F8 whole entry L364H): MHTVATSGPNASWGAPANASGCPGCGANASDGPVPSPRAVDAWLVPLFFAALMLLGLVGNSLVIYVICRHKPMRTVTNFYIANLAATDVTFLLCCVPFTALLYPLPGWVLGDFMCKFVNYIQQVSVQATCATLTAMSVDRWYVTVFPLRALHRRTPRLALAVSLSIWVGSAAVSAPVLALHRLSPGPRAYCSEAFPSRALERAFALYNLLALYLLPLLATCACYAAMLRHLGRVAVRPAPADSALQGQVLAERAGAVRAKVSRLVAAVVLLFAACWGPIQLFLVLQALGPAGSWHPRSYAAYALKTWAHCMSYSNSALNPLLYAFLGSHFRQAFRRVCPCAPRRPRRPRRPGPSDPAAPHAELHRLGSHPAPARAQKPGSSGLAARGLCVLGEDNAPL
Turning to B1, the Specific Activity (EC50 of test compound based on EC50 of Metastin (45-54); intracellular calcium, FLIPR) (ratio to EC50 of Metastin (45-54)) is 1.3.

For the molecule B2, the Specific Activity (EC50 of test compound based on EC50 of Metastin (45-54); intracellular calcium, FLIPR) (ratio to EC50 of Metastin (45-54)) was found to be 0.5.

As to B3, the Specific Activity (EC50 of test compound based on EC50 of Metastin (45-54); intracellular calcium, FLIPR) (ratio to EC50 of Metastin (45-54)) was 0.7.

Regarding B4, the Specific Activity (EC50 of test compound based on EC50 of Metastin (45-54); intracellular calcium, FLIPR) (ratio to EC50 of Metastin (45-54)) came out at 1.

Turning to B5, the Specific Activity (EC50 of test compound based on EC50 of Metastin (45-54); intracellular calcium, FLIPR) (ratio to EC50 of Metastin (45-54)) was 0.5.

With B6, the Specific Activity (EC50 of test compound based on EC50 of Metastin (45-54); intracellular calcium, FLIPR) (ratio to EC50 of Metastin (45-54)) was 1.1.

Consider B7, for which the Specific Activity (EC50 of test compound based on EC50 of Metastin (45-54); intracellular calcium, FLIPR) (ratio to EC50 of Metastin (45-54)) is 0.5.

With B8, the Specific Activity (EC50 of test compound based on EC50 of Metastin (45-54); intracellular calcium, FLIPR) (ratio to EC50 of Metastin (45-54)) came to 1.1.

As for B9, the Specific Activity (EC50 of test compound based on EC50 of Metastin (45-54); intracellular calcium, FLIPR) (ratio to EC50 of Metastin (45-54)) was 3.5.

Regarding B10, the Specific Activity (EC50 of test compound based on EC50 of Metastin (45-54); intracellular calcium, FLIPR) (ratio to EC50 of Metastin (45-54)) is 0.7.

With B11, the Specific Activity (EC50 of test compound based on EC50 of Metastin (45-54); intracellular calcium, FLIPR) (ratio to EC50 of Metastin (45-54)) came to 0.4.

In the case of B12, the Specific Activity (EC50 of test compound based on EC50 of Metastin (45-54); intracellular calcium, FLIPR) (ratio to EC50 of Metastin (45-54)) came out at 1.3.

Take B13: the Specific Activity (EC50 of test compound based on EC50 of Metastin (45-54); intracellular calcium, FLIPR) (ratio to EC50 of Metastin (45-54)) came to 0.5.

As to B14, the Specific Activity (EC50 of test compound based on EC50 of Metastin (45-54); intracellular calcium, FLIPR) (ratio to EC50 of Metastin (45-54)) is 0.7.

Turning to B15, the Specific Activity (EC50 of test compound based on EC50 of Metastin (45-54); intracellular calcium, FLIPR) (ratio to EC50 of Metastin (45-54)) stood at 0.5.

On to B16, for which the Specific Activity (EC50 of test compound based on EC50 of Metastin (45-54); intracellular calcium, FLIPR) (ratio to EC50 of Metastin (45-54)) came out at 0.7.
